B1: unnamed (protein)
chain 1: QAYLQQSGAELVRPGASVKMSCKASGYTFTSYNMHWVKQTPRQGLEWIGAIYPGNGDTSYNQKFKGKATLTVDKSSSTAYMQLSSLTSEDSAVYFCARVVYYSNSYWYFDVWGTGTTVTVSA
chain 2: QIVLSQSPAILSASPGEKVTMTCRASSSVSYMHWYQQKPGSSPKPWIYAPSNLASGVPARFSGSGSGTSYSLTISRVEAEDAATYYCQQWSFNPPTFGAGTKLELK
B2: unnamed (protein)
chain 1: QVQLQQSGPEVVKPGASVKMSCKASGYTFTSYVIHWVRQKPGQGLDWIGYINPYNDGTDYDEKFKGKATLTSDTSTSTAYMELSSLRSEDTAVYYCAREKDNYATGAWFAYWGQGTLVTVSS
chain 2: DIVMTQSPDSLAVSLGERVTMNCKSSQSLLYSTNQKNYLAWYQQKPGQSPKLLIYWASTRESGVPDRFSGSGSGTDFTLTISSVQAEDVAVYYCQQYYSYRTFGGGTKLEIK
B3: unnamed (protein)
chain 1: EVHLVESGGALVKPGGSLRLSCAASGFSFSKYGMSWVRQAPGKGLEWVATISSSGSRTYYPDSVKGRFTISRDNAKNTLYLQMNSLRAEDTAMYYCSISWDGAMDYWGQGTTVTVSS
chain 2: DVVMTQSPLSLPVTLGQPASISCKSSQSIVHSNGNTYLEWYLQKPGQSPQLLVYKVSNRFSGVPDRFSGSGSGTDFTLKISRVEAEDVGTYYCFQGSLVPWAFGGGTKVEIK
B4: unnamed (protein)
chain 1: EVQLVQSGAEVKKPGESLKISCKGSGYSFSNYWIGWVRQMPGKGLEWMGIIDPSNSYTRYSPSFQGQVTISADKSISTAYLQWSSLKASDTAMYYCARWYYKPFDVWGQGTLVTVSS
chain 2: QSVLTQPPSVSGAPGQRVTISCTGSSSNIGSGYDVHWYQQLPGTAPKLLIYGNSKRPSGVPDRFSGSKSGTSASLAITGLQSEDEADYYCASWTDGLSLVVFGGGTKLTVL
B5: unnamed (protein)
chain 1: EVQLLESGGGLVQPGGSLRLSCAASGFTFSSYAMNWVRQAPGKGLEWVSAITMSGITAYYTDDVKGRFTISRDNSKNTLYLQMNSLRAEDTAVYYCAKEEFLPGTHYYYGMDVWGQGTTVTVSS
chain 2: AIQMTQSPSSLSASVGDRVTITCRASQGIRNDLGWYQQKPGKAPKLLIYSASTLQSGVPSRFSGSGSGTDFTLTISSLQPEDFATYCLQDYNYPWTFGQGTKVEIK

Test: patients with anti-drug antibodies; higher = more immunogenic

| Protein | patients with anti-drug antibodies [%] |
| --- | --- |
| B1 | 1.9 |
| B2 | 15 |
| B3 | 6.2 |
| B4 | 6 |
| B5 | 2.5 |

— the FLAb antibody collection
